Assay results from article PMC9163516, “Convergent evolution of a parasite-encoded complement control protein-scaffold to mimic binding of mammalian TGF-β to its receptors, TβRI and TβRII” (The Journal of Biological Chemistry, 2022).

B1: TGM-D2 (domain or fragment)
chain: RCSPLPTNDTVSFEYLKATVNPGIIFNITVHPDASGKYPELTYIKRICKNFPTDSNVQGHIIGMCYNAEWQFSSTPTCPAS
modifications: refolded from E. coli, disulfide-bonded; limits set between D1 (ends at 95) and D3 (starts at about 177); vector residues left after thrombin cleavage omitted
B2: TβRI ectodomain (receptor)
chain: LQCFCHLCTKDNFTCVTDGLCFVSVTETTDKVIHNSMCIAEIDLIPRDRPFVCAPSSKTGSVTTTYCCNQDHCNKIELPTTVKSSPGLGPVEL
notes: also called TGF-β type I receptor

Columns and labels:
Conditions in all cases: both partners purified
[1] = target: B2; test: ITC; TGM construct titrated into TβRI in the cell; 25 mM Hepes, 50 mM NaCl, 0.05% NaN3, pH 7.5, 25 °C; 1:1 model
[2] = target: B1; test: NMR titration; 1H-15N HSQC of 15N TGM-D2 or 15N TGM-D3 with 0 to 1.4 equivalents of unlabeled TβRI; 25 mM sodium phosphate, 50 mM NaCl, pH 7.0, 310 K (legend of Figure 3)
[3] = target: T1, TβRII D55N (UniProt P37173 23-166, D55N); test: SPR; biotinylated avi-tagged TGM-D3 captured (50-150 RU) on a neutravidin-coated CM-5 chip, TβRII and its variants injected; 25 mM Hepes, pH 7.4, 150 mM NaCl, 0.05% surfactant P20, 100 µl/min; 1:1 kinetic fit of duplicate or triplicate injection series
T1 construct: also called Asp55Asn
T1 sequence (P37173 23-166 D55N): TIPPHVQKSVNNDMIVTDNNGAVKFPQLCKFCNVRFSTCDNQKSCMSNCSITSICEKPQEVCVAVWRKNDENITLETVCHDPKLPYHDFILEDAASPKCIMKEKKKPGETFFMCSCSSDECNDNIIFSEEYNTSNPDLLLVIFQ

[4] = target: T2, TβRII I73A (UniProt P37173 23-166, I73A); test: as above
T2 construct: also called Ile73Ala
T2 sequence (P37173 23-166 I73A): as the sequence (P37173 23-166 D55N) above, with N33D, I51A counted along it

[5] = target: T3, TβRII S75L (UniProt P37173 23-166, S75L); test: as above
T3 construct: also called Ser75Leu
T3 sequence (P37173 23-166 S75L): as the sequence (P37173 23-166 D55N) above, with N33D, S53L counted along it

[6] = target: T4, TβRII I76A (UniProt P37173 23-166, I76A); test: as above
T4 construct: also called Ile76Ala
T4 sequence (P37173 23-166 I76A): as the sequence (P37173 23-166 D55N) above, with N33D, I54A counted along it

[7] = target: T5, TβRII E142Q (UniProt P37173 23-166, E142Q); test: as above
T5 construct: also called Glu142Gln
T5 sequence (P37173 23-166 E142Q): as the sequence (P37173 23-166 D55N) above, with N33D, E120Q counted along it

[8] = target: T6, TβRII ectodomain (UniProt P37173 23-166); test: as above
T6 construct: also called WT TβRII; TGF-β type II receptor
T6 sequence (P37173 23-166): as the sequence (P37173 23-166 D55N) above, with N33D counted along it

[9] = target: T6, TβRII ectodomain; test: ITC; TGM construct in the syringe (300-320 µM), 15 µM TβRII in the cell; 25 mM sodium phosphate, 50 mM NaCl, pH 6.0, 35 °C; 1:1 model (Nitpic, Sedphat)
[10] = target: T7, biotinylated avi-tagged TβRII (UniProt P37173 23-166, a single biotin on the avi tag (BirA)); test: SPR; biotinylated avi-tagged TβRII captured (50-150 RU) on a neutravidin-coated CM-5 chip, TGM-D3 and its variants injected; 25 mM Hepes, pH 7.4, 150 mM NaCl, 0.05% surfactant P20, 100 µl/min; 1:1 kinetic fit of duplicate or triplicate injection series
T7 construct: also called TβRII (SPR surface)
T7 sequence (P37173 23-166): as the sequence (P37173 23-166 D55N) above, with N33D counted along it

Row | Binder | Kd [10] | koff [10] | kon [10] | also measured
1 | B1 | – | – | – | fold increase of KD against TGM-FL [1]: ~50 fold; stoichiometry N [1]: ~0.5
2 | B2 | – | – | – | stoichiometry N [2]: 1
3 | biotinylated avi-tagged TGM-D3 (domain or fragment, a single biotin on the avi tag (BirA), also called TGM-D3 (SPR surface); not shown: Thioredoxin, N-terminal, cleaved; His6, N-terminal, cleaved) GSGTGCPPLPDDGIVFYEYYGYAGDRHTVGPVVTKDSSGNYPSPTHARRRCRALSQEADPGEFVAICYKSGTTGESHWEYYKNIGKCPDP | – | – | – | Kd [3]: 63 ± 1 µM; koff [3]: 3.1 ± 0.1 s⁻¹; kon [3]: 50000 M⁻¹ s⁻¹; Kd [4]: 6.9 ± 0.1 µM; koff [4]: 1.1 ± 0.1 s⁻¹; kon [4]: 160000 M⁻¹ s⁻¹; Kd [5]: 310 ± 30 µM; koff [5]: 3.9 ± 0.9 s⁻¹; kon [5]: 13000 M⁻¹ s⁻¹; Kd [6]: 26 ± 1 µM; koff [6]: 1.2 ± 0.1 s⁻¹; kon [6]: 47000 M⁻¹ s⁻¹; Kd [7]: 17 ± 1 µM; koff [7]: 10 ± 10 s⁻¹; kon [7]: 410000 M⁻¹ s⁻¹; Kd [8]: 1.6 ± 0.1 µM; koff [8]: 0.7 ± 0.1 s⁻¹; kon [8]: 410000 M⁻¹ s⁻¹
4 | TGM-D3 (domain or fragment, also called WT TGM-D3; domain 3 of H. polygyrus TGF-β mimic; not shown: Thioredoxin, N-terminal, cleaved; His6, N-terminal, cleaved) GSGTGCPPLPDDGIVFYEYYGYAGDRHTVGPVVTKDSSGNYPSPTHARRRCRALSQEADPGEFVAICYKSGTTGESHWEYYKNIGKCPDP | 1.6 ± 0.1 µM | 0.26 ± 0.01 s⁻¹ | 160000 M⁻¹ s⁻¹ | Kd [9]: 1.2 µM; stoichiometry N [9]: 1.1
5 | TGM-D3 N255A (domain or fragment, also called Asn255Ala; not shown: Thioredoxin, N-terminal, cleaved; His6, N-terminal, cleaved) GSGTGCPPLPDDGIVFYEYYGYAGDRHTVGPVVTKDSSGNYPSPTHARRRCRALSQEADPGEFVAICYKSGTTGESHWEYYKAIGKCPDP | 2.7 ± 0.1 µM | 1.3 ± 0.1 s⁻¹ | 480000 M⁻¹ s⁻¹ | –
6 | TGM-D3 I256A (domain or fragment, also called Ile256Ala; not shown: Thioredoxin, N-terminal, cleaved; His6, N-terminal, cleaved) GSGTGCPPLPDDGIVFYEYYGYAGDRHTVGPVVTKDSSGNYPSPTHARRRCRALSQEADPGEFVAICYKSGTTGESHWEYYKNAGKCPDP | 1.6 ± 0.1 µM | 1.4 ± 0.1 s⁻¹ | 880000 M⁻¹ s⁻¹ | –
7 | TGM-D3 I238A (domain or fragment, not shown: Thioredoxin, N-terminal, cleaved; His6, N-terminal, cleaved) GSGTGCPPLPDDGIVFYEYYGYAGDRHTVGPVVTKDSSGNYPSPTHARRRCRALSQEADPGEFVAACYKSGTTGESHWEYYKNIGKCPDP | 25 ± 1 µM | 2.3 ± 0.1 s⁻¹ | 94000 M⁻¹ s⁻¹ | –
8 | TGM-D3 V236A (domain or fragment, also called Val236Ala; not shown: Thioredoxin, N-terminal, cleaved; His6, N-terminal, cleaved) GSGTGCPPLPDDGIVFYEYYGYAGDRHTVGPVVTKDSSGNYPSPTHARRRCRALSQEADPGEFAAICYKSGTTGESHWEYYKNIGKCPDP | 4.6 ± 0.1 µM | 1.8 ± 0.1 s⁻¹ | 380000 M⁻¹ s⁻¹ | –
9 | TGM-D3 K254A (domain or fragment, also called Lys254Ala; not shown: Thioredoxin, N-terminal, cleaved; His6, N-terminal, cleaved) GSGTGCPPLPDDGIVFYEYYGYAGDRHTVGPVVTKDSSGNYPSPTHARRRCRALSQEADPGEFVAICYKSGTTGESHWEYYANIGKCPDP | 35 ± 1 µM | 12 ± 6 s⁻¹ | 300000 M⁻¹ s⁻¹ | –
10 | TGM-D3 K258A (domain or fragment, also called Lys258Ala; not shown: Thioredoxin, N-terminal, cleaved; His6, N-terminal, cleaved) GSGTGCPPLPDDGIVFYEYYGYAGDRHTVGPVVTKDSSGNYPSPTHARRRCRALSQEADPGEFVAICYKSGTTGESHWEYYKNIGACPDP | 2.7 ± 0.1 µM | 1.2 ± 0.1 s⁻¹ | 430000 M⁻¹ s⁻¹ | –
11 | TGM-D3 F235A (domain or fragment, also called Phe235Ala; not shown: Thioredoxin, N-terminal, cleaved; His6, N-terminal, cleaved) GSGTGCPPLPDDGIVFYEYYGYAGDRHTVGPVVTKDSSGNYPSPTHARRRCRALSQEADPGEAVAICYKSGTTGESHWEYYKNIGKCPDP | 4.1 ± 0.1 µM | 1.8 ± 0.2 s⁻¹ | 450000 M⁻¹ s⁻¹ | –
12 | TGM-D3 H199A (domain or fragment, also called His199Ala; not shown: Thioredoxin, N-terminal, cleaved; His6, N-terminal, cleaved) GSGTGCPPLPDDGIVFYEYYGYAGDRATVGPVVTKDSSGNYPSPTHARRRCRALSQEADPGEFVAICYKSGTTGESHWEYYKNIGKCPDP | 3 ± 0.1 µM | 0.98 ± 0.01 s⁻¹ | 330000 M⁻¹ s⁻¹ | –
13 | TGM-D3 Y252A (domain or fragment, not shown: Thioredoxin, N-terminal, cleaved; His6, N-terminal, cleaved) GSGTGCPPLPDDGIVFYEYYGYAGDRHTVGPVVTKDSSGNYPSPTHARRRCRALSQEADPGEFVAICYKSGTTGESHWEAYKNIGKCPDP | 21 ± 1 µM | 1.7 ± 0.1 s⁻¹ | 78000 M⁻¹ s⁻¹ | –
14 | TGM-D12 (domain or fragment, refolded from E. coli, disulfide-bonded; start from the listed D1 range (16-95), end set just before D3 (Cys178 is the first D3 cysteine; 7SXB places D3 at about 177-262); vector residues left after …) DDSGCMPFSDEAATYKYVAKGPKNIEIPAQIDNSGMYPDYTHVKRFCKGLHGEDTTGWFVGICLASQWYYYEGVQECDDRRCSPLPTNDTVSFEYLKATVNPGIIFNITVHPDASGKYPELTYIKRICKNFPTDSNVQGHIIGMCYNAEWQFSSTPTCPAS | – | – | – | Kd [1]: 0.025 µM; dH [1]: -19 kcal/mol; stoichiometry N [1]: ~1
